Laboratory results: FireProtDB (doi:10.1021/bi00011a035)

Settings: Aspergillus oryzae (strain ATCC 42149 / RIB 40), 25 °C, GdnHCl, Absorbance, reversible: yes, whole UniProt chain shown

B1: Guanyl-specific ribonuclease T1 wild type, P00651 (protein)
chain: MMYSKLLTLTTLLLPTALALPSLVERACDYTCGSNCYSSSDVSTAQAAGYQLHEDGETVGSNSYPHKYNNYEGFDFSVSSPYYEWPILSSGDVYSGGSPGADRVVFNENNQLAGVITHTGASGNNFVECT
denaturant m value (pH 3, beta-alanine 0.1 M): 1.85 kcal/mol/M
denaturant midpoint (higher = more stable) (pH 3, beta-alanine 0.1 M): 2.42 M
unfolding free energy (pH 3, beta-alanine 0.1 M): 4.48 kcal/mol
denaturant m value (pH 3.5, beta-alanine 0.1 M): 1.7 kcal/mol/M
denaturant midpoint (higher = more stable) (pH 3.5, beta-alanine 0.1 M): 3.4 M
unfolding free energy (pH 3.5, beta-alanine 0.1 M): 5.78 kcal/mol
denaturant m value (pH 6, Bis-Tris 0.1 M): 1.36 kcal/mol/M
denaturant midpoint (higher = more stable) (pH 6, Bis-Tris 0.1 M): 6.49 M
unfolding free energy (pH 6, Bis-Tris 0.1 M): 8.82 kcal/mol
denaturant m value (pH 7, HEPES 0.1 M): 1.28 kcal/mol/M
denaturant midpoint (higher = more stable) (pH 7, HEPES 0.1 M): 7.26 M
unfolding free energy (pH 7, HEPES 0.1 M): 9.26 kcal/mol
denaturant m value (pH 8.5, taurine 0.1 M): 1.21 kcal/mol/M
denaturant midpoint (higher = more stable) (pH 8.5, taurine 0.1 M): 7.69 M
unfolding free energy (pH 8.5, taurine 0.1 M): 9.3 kcal/mol
